B1: NRCoV2-21 VHH-Fc (Fc fusion)
chain: EVQLVESGGGLVQPGGSLRLSCATSGFTLDYYAIGWFRQAPGKEREWVSCISSGGSTFYVDSVKGRFTISRDNAKDTVYLQMSSLKPDDTAVYYCAADHRGRSLRFGCSSSTTDYLYWGQGTQVTVSS
notes: bivalent VHH-Fc
B2: NRCoV2-MRed11 VHH-Fc (Fc fusion)
chain: EVQLVESGGGLVQAGGSLRLSCAASGFTFSSYAMSWHRQAPGKGLEWVSAINSGGGSTSYADSVKGRFAISRDNAKNTLYLQMNSLKPEDTAVYYCATTISDGSSWSTKSYRGQGTQVTVSS
notes: bivalent VHH-Fc
B3: NRCoV2-S2B3 VHH-Fc (Fc fusion)
chain: QVQLVDSGGGLVQAGGSLRLSCAASASTFGDSAMGYYRQAPGKQRELVATISTGSNTNYADSVKGRFTISRDDAKNTVYLQMNSLKPEDTAVYYCNYRSIYYGQNFWGQGTQVTVSS
notes: bivalent VHH-Fc
B4: NRCoV2-15 VHH-Fc (Fc fusion)
chain: EVQLVSSGGGLVEAGGSLRLSCIASGSTSGRNTMGWFRQAPGKQREWVAIVSTSGATNYAGSVKGRFTLSRDNAKNAVYLQMNNLKPEDTAVYYCYAAYGGGGDYWGQGTQVTVSS
notes: bivalent VHH-Fc
B5: NRCoV2-SR03 VHH-Fc (Fc fusion)
chain: AVQLVDSGGGLVQAGGSLRLSCAASGSIFSNNHMGWYRQAPGKQRELVAAISSGGKTNYADFAKGRFTISRDNAKNMVYLQMNSLKPEDTAVYYCNRGGWEYRSSYYIMGPHWGQGTQVTVSS
notes: bivalent VHH-Fc
B6: NRCoV2-SR04 VHH-Fc (Fc fusion)
chain: QVQLVESGGGLVQAGGSLRLSCAASGRTFSSHTVGWYRQAPGKQRDLVAAISMGGNTNYADYADSVKGRFTISRDNAKNTLYLQMNSLKPEDTAVYYCNTAALVGNRLLPMATITWGQGTQVTVSS
notes: bivalent VHH-Fc
B7: NRCoV2-17 VHH-Fc (Fc fusion)
chain: EVQLQQSGGGLVQTGGSLRLSCAAAGSPFSQLAMSWYRQISGKERAWVASISPTGNRSYSKIAKGRFTISRDNAKNTVTLQMTSLKPEDTAAYICQAANVNGGDYWGQGTQVTVSS
notes: bivalent VHH-Fc
B8: NRCoV2-18 VHH-Fc (Fc fusion)
chain: EVQLVESGGGLVQAGGSLRLSCVASGITISGYNMAWWRQTRGKQTERVAFINSGGSTTYSDSVKGRFTISRDNGKNTAYLQMNSLNAEDTADYFCSLHTSHDYWGQGTQVTVSS
notes: bivalent VHH-Fc
B9: NRCoV2-SR01 VHH-Fc (Fc fusion)
chain: EVQLVQSGGGSVQAGGSLRLSCVASGFTFDNYAIGWFRQAPGKEREGVSCISGNGGVTIYADSVKGRFTISRDNAKNLVYLQMNSLKPEDTAVYYCAATGIRSTWSVYGCSRLAGPYDYWGQGTQVTVSS
notes: bivalent VHH-Fc
B10: NRCoV2-07 VHH-Fc (Fc fusion)
chain: QVQLVQSGGGLVQPGGSLRLSCAASGVTLDYYAIGWFRQAPGKEREAVSCISSNGRRNHYVASVRGRFTISRDNAKSTVYLQMNSLKPEDTAVYYCAAVQDVHGDNYYCTSPNEYNVWGQGTQVTVSS
notes: bivalent VHH-Fc
B11: NRCoV2-20 VHH-Fc (Fc fusion)
chain: EVQLQQSGGGLVQPGGSLRLSCAASGRTFSNYVVGWFRQAPQAPGKDHEFVAVISGSDTETYYADSVKGRFTISRDNAKNTVYLQMNSLKPEDTAVYYCAADRGMSYYYTRATEYYYWGQGTQVTVSS
notes: bivalent VHH-Fc
B12: NRCoV2-12 VHH-Fc (Fc fusion)
chain: EVQLQQSGGGLVQAGGSLRLSCAASGRTFRNYVMGWFRQAPQAPGKDHEFVAAISWGGTEIYYADSVKGRFTISRDNAKNTVYLQMNSLKPEDTAVYYCAADRGLSYYYTRTTEYNYWGQGTQVTVSS
notes: bivalent VHH-Fc
B13: NRCoV2-SR13 VHH-Fc (Fc fusion)
chain: EVQLVESGGGLVTTGGSLRLSCATSGSRFGSKHMAWYRQAPGKQRDLVAAISSGGSTHYGSSVKGRFTISRDNAKSTVYLQMNSLNPEDTAVFYCNMGGWDYRSNTYIPGSRSDYWGQGTQVTVSS
notes: bivalent VHH-Fc
B14: NRCoV2-MRed04 VHH-Fc (Fc fusion)
chain: EVQLVESGGGLVQPGRSLRLSCAASGNSFSISTMGWFRQAPGKERELVASIWSDTTTSYADSVKGRFTISTDNTRTKVYLQMSSLNPEDTAVYYCAADRGFVVRGQYDYWGQGTQVTVSS
notes: bivalent VHH-Fc
B15: NRCoV2-11 VHH-Fc (Fc fusion)
chain: EVQLVSSGGGLVQPGGSLRLSCAASGSSLDSYSVSWFRQAPGKEREWISFISRYYSSTYYTDSVKGRFTTSRDGDQKTVHLQMNSLKPEDTAVYYCAARSRDFSSPFSATDTYTSWGQGTQVTVSS
notes: bivalent VHH-Fc
B16: NRCoV2-MRed07 VHH-Fc (Fc fusion)
chain: EVQLVESGGGLVQPGGSLTLSCAASGSIGPFNTMGWYRQAPGNQREPAAIITRGGVTNYADSVKGRFTISRDNAKNAVYLQMDSLKPDDTAVYYCYANYGWAIPYWGNGTQVTVSS
notes: bivalent
B17: NRCoV2-SR01 VHH-Fc (Fc fusion)
chain: B9 chain
notes: bivalent VHH-Fc
B18: NRCoV2-SR02 VHH-Fc (Fc fusion)
chain: EVQLVDSGGGLVQAGGSLRLSCTASEFTLNYYSIGWFRQSPGKEREGVSCIRYSGGGIDYADSVKGRFTISRDNAKNTVYLTMNSLKPEDTAVYYCAADRLYSRACPTAGGRNYWGQGTQVTVSS
notes: bivalent VHH-Fc
B19: NRCoV2-02 VHH-Fc (Fc fusion)
chain: EVQLVESGGGLVQAGGSLRLSCAASGFTFSNYAMNWVRQAPGKGLEWVSGISGRGDDTRYADSVKGRFTISRDNAKNTLFLQMRSLRPEDTGVYRCTKGPDLYYFGSGYSDRGQGTQVTVSS
notes: bivalent VHH-Fc

One assay concerns the target SARS-CoV spike (S) (SARS-CoV, UniProt P59594 14-1195). The assay can be described thus: ELISA. On the technique in general: ELISA stands for enzyme-linked immunosorbent assay.
Regarding B1, the binding result was “no binding (tested: 13 nM)”.

On to B2, for which the binding result is on record as “no binding (tested: 13 nM)”.

B3: the binding result is listed as “no binding (tested: 13 nM)”.

On to B4, for which the binding result is recorded as “no binding (tested: 13 nM)”.

For the molecule B5, the binding result is “no binding (tested: 13 nM)”.

B6: the binding result is listed as “no binding (tested: 13 nM)”.

Consider B7, for which the binding result was “no binding (tested: 13 nM)”.

A further assay has as its target Human SARS-CoV-2_Wuhan S (SmT1) (SARS-CoV-2 (Wuhan), UniProt P0DTC2 14-1208). The assay can be described thus: flow cytometry SVNA: VHH-Fc inhibits S binding to ACE2 on Vero E6 cells. (In general: In flow cytometry, cells or beads pass a laser one at a time.)
In turn, B8 had an IC50 of 9.1 nM.

On to B9, for which the IC50 was 4.2 nM.

B10 registered an IC50 of 4.7 nM.

As for B11, the IC50 amounted to 6.5 nM.

B12 returned an IC50 of 3.5 nM. This IC50 is about 1.9-fold lower than that of the molecule before.

Molecule B13 came in with an IC50 of 7.7 nM. Compared with the last molecule, the IC50 is about 2.2-fold higher.

For B14, the IC50 amounted to 5 nM.

With B15, the IC50 was found to be 3.2 nM.

The next assay concerns the target Human SARS-CoV S (SARS-CoV, UniProt P59594 14-1190). The assay is described as above.
On to B8, for which the IC50 came out at 12.7 nM.

The molecule B9 returned an IC50 of 5.1 nM.

B10 displayed an IC50 of 4.2 nM.

The molecule B11 gave an IC50 of 10.3 nM.

Molecule B12 gave an IC50 of 3.1 nM. This IC50 lies about 3.3-fold lower than the previous one.

Consider B13, for which the IC50 was determined as 15 nM.

Turning to B14, the IC50 is 24.6 nM.

The molecule B15 had an IC50 of 7.7 nM.

The next assay concerns the target T1, SARS-CoV-2 S1-NTD (aa16-305) (SARS-CoV-2 Wuhan, UniProt P0DTC2 16-305). The assay can be described thus: ELISA, coated antigen, apparent EC50.
As for B16, the EC50 worked out at 0.8 nM.

The target of a further assay is T2, SARS-CoV-2 spike trimer S (Wuhan, SmT1) (SARS-CoV-2 Wuhan).
T2 construct: extracellular domain
The assay is described as follows: ELISA, coated antigen, apparent EC50.
Consider B16, for which the EC50 is 1.2 nM.

Another assay concerns the target T3, SARS-CoV-2 S1 (aa16-685) (Wuhan) (SARS-CoV-2 Wuhan, UniProt P0DTC2 16-685).
T3 construct: NRC; FLAG, 6xHis tags
The assay is described as follows: ELISA, coated antigen, apparent EC50.
For the molecule B16, the EC50 turned out to be 1.5 nM.

The target in the next assay is T4, SARS-CoV-2 S on CHO-S cells (SARS-CoV-2, UniProt P0DTC2 14-1273).
T4 construct: whole, on cells
The assay can be described thus: flow cytometry, CHO-S cells.
B2 returned a Bmax of 3250 and an EC50 of 2.9 nM.

The molecule B3 returned a Bmax of 6660 and an EC50 of 6.5 nM.

Regarding B4, the Bmax was found to be 21100 and the response was half-maximal at 0.8 nM (EC50).

Molecule B5 displayed a Bmax of 19900 and an EC50 of 7.1 nM.

For B6, the Bmax came to 10100 and a half-maximal response (EC50) required 8.2 nM.

In turn, B7 yielded a Bmax of 19000 and an EC50 of 0.4 nM.

The next assay has as its target T1, SARS-CoV-2 S1-NTD (aa16-305). The assay is described as follows: ELISA.
On to B2, for which the binding result is “no binding (tested: 13 nM)”.

Regarding B4, the binding result was “no binding (tested: 13 nM)”.

In the case of B7, the binding result was “no binding (tested: 13 nM)”.

A further assay has as its target T5, SARS-CoV-2 S2 (aa686-1208) (Wuhan) (SARS-CoV-2 Wuhan, UniProt P0DTC2 686-1208).
T5 construct: NRC; FLAG, 6xHis tags
The assay is described as follows: ELISA.
Consider B4, for which the binding result is listed as “no binding (tested: 13 nM)”.

For the molecule B5, the binding result is listed as “no binding (tested: 13 nM)”.

For B6, the binding result is “no binding (tested: 13 nM)”.

As to B7, the binding result was “no binding (tested: 13 nM)”.

For a further assay, the target named is T3, SARS-CoV-2 S1 (aa16-685) (Wuhan). The assay is described as follows: ELISA.
In the case of B2, the binding result was “no binding (tested: 13 nM)”.

The target of a further assay is Human SARS-CoV-2_Wuhan S (SmT1) (SARS-CoV-2 (Wuhan), UniProt P0DTC2 14-1208). The assay can be described thus: flow cytometry SVNA, VHH-Fc vs biotin-S binding to Vero E6 ACE2.
Molecule B17 gave an IC50 of 6.6 nM, an IC99 of 56.9 nM and an Imax % of 59%.

B18 returned an IC50 of 5.8 nM, an IC99 of 49.8 nM and an Imax % of 53%.

B19: the IC50 came out at 5 nM, the IC99 worked out at 30 nM and the Imax % stood at 94%.

Another assay deals with T6, SARS-CoV-2 spike protein S on live virus, Wuhan (strain SARS-CoV-2/Canada/VIDO-01/2020) (SARS-CoV-2 (Wuhan), UniProt P0DTC2 14-1273). The assay is described as follows: cell-based or functional assay.
B17 yielded an MN100 of 6.25 nM.

As for B18, the MN100 is 6.25 nM.

For the molecule B19, the MN100 is not above 0.01 nM.

Another assay addresses T6, SARS-CoV-2 spike protein S on live …. The assay is described as follows: cell-based or functional assay. This is another data set of the same source.
B17: the “LVNA IC50” value amounted to 9.42 nM.

Regarding B18, the “LVNA IC50” value came out at 14.1 nM.

Regarding B19, the “LVNA IC50” value was found to be 0.12 nM.

A word on the IC50: it is the concentration that inhibits the measured activity by half. The low end stands for greater potency, the high end for weaker potency. What is called EC50 is the midpoint of the concentration-response curve. What is called IC99 is the point of the concentration-response curve where the effect stands at 99%. A high value points to a need for much substance.

The values above are taken from patent US20240270826A1 (NATIONAL RESEARCH COUNCIL OF CANADA, published 2024).
